“And” between values parts separate entries of the source, which are not always exact repeats. Identical values can stand only once.
Molecular target: CD40 receptor on cells (HEK293 reporter cells expressing CD40; primary human B cells) (human) (UniProt P25942)
Test: cell-based or functional assay

Chain of anti-CD40 monoclonal antibody corresponding to sequence 21.4.1 of U.S. Pat. No. 7,338,660 B2 (VH): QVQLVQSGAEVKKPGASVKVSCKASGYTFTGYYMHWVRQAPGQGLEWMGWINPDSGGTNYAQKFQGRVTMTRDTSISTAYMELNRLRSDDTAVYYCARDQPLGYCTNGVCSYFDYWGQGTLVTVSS
Chain of anti-CD40 monoclonal antibody corresponding to sequence 21.4.1 of U.S. Pat. No. 7,338,660 B2 (VL): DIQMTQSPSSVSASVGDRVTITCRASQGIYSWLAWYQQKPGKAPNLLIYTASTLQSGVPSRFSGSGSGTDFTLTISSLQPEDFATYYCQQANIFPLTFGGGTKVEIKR
Chain of CD40 receptor on cells (HEK293 reporter cells expressing CD40; primary human B cells) (human) (P25942 21-277): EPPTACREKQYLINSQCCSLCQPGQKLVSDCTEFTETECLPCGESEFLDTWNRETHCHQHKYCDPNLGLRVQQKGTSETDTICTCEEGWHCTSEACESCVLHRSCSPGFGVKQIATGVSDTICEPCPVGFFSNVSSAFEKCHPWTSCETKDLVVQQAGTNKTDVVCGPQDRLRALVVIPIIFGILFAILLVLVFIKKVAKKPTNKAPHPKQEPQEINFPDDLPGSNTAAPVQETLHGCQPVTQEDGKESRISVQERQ

In the case of “anti-CD40 monoclonal antibody corresponding to sequence 21.4.1 of U.S. Pat. No. 7,338,660 B2”, the EC50 [nM], % CD86, human B cells with FAP-CHO, w HSA is reported as 0.88 nM and 0.3 nM, the EC50 [nM], % CD86, human B cells with FAP-CHO, w/o HSA is reported as 1.9 nM and 0.51 nM and the EC50 [nM], MFI CD86, human B cells with FAP-CHO, w HSA is reported as 0.51 nM and 2.05 nM. For the same substance, the EC50 [nM], MFI CD86, human B cells with FAP-CHO, w/o HSA was 1.13 nM and 4.73 nM, the Efficacy [MFI at highest dose], MFI CD86, human B cells with FAP-CHO, w HSA was 1530 MFI and 1870 MFI and the Efficacy [MFI at highest dose], MFI CD86, human B cells with FAP-CHO, w/o HSA was 1340 MFI and 2060 MFI. For the same substance, the Efficacy [MFI at highest dose], MFI CD86, human B cells with WT-CHO (no FAP), w HSA was 1470 MFI and 1900 MFI and the Efficacy [MFI at highest dose], MFI CD86, human B cells with WT-CHO (no FAP), w/o HSA was 1390 MFI and 2050 MFI.

From US20240279309A1
